The source of these data is the RNAGym collection of RNA variant scans (doi:10.7554/elife.90254).

B1: LINE1-full (parent)
chain: UACGUAGGUGGUUUUCCCCUGAUAGUGCUAAGGGGGCCUGGAAGUUUGGACUGGGCAGAGCUCAACACAGCGUGGCAAAGUGGCUGUGGCUAGACUGCCUCUCUGGAUUCCUCGUCACUCAGCAGGGCAUCUCUGAGAGAAAUGCC

In this data set the parent is B1. The data set can be described thus: self-cleavage, relative activity (ratio to wild type); higher = more cleavage; in vitro, sequencing; the parent is a self-cleaving ribozyme.
Consider G33A A50G, for which the self-cleavage came to 1.02.

Take A31U U85C: the self-cleavage came out at 0.28.

In the case of A31U U85A, the self-cleavage was 0.07.

G35A G125U: the self-cleavage was 1.03.

For A31G G126A, the self-cleavage is 1.32.

On to G32C A78G, for which the self-cleavage was 0.73.

For A31U U87C, the self-cleavage is 0.24.

With G33C A129U, the self-cleavage stood at 1.69.

A31U U47A: the self-cleavage was found to be 0.77.

A31U A64U: the self-cleavage came to 0.42.

G33C A65G: the self-cleavage was found to be 0.

On to A31U A117U, for which the self-cleavage came out at 0.95.

For the variant A31U A117G, the self-cleavage came to 1.2.

G33U U87A: the self-cleavage came to 0.03.

As for A31G U45C, the self-cleavage was determined as 1.07.

With A31G U45A, the self-cleavage is 0.85.

For the variant G33C U119C, the self-cleavage is 1.8.

On to A31G G105U, for which the self-cleavage amounted to 1.27.

Take A31G G105A: the self-cleavage stood at 1.29.

With G32C A141G, the self-cleavage stood at 1.99.

Take G33C U87G: the self-cleavage is 0.22.

As for G33A A141G, the self-cleavage was determined as 1.01.

With G32A A138G, the self-cleavage was 1.16.

Regarding G32C G35A, the self-cleavage came out at 1.16.

Consider A31G U115C, for which the self-cleavage amounted to 1.37.

Turning to A31G U112A, the self-cleavage came out at 1.61.

For the variant G32A C84U, the self-cleavage amounted to 0.21.

With A31U A129G, the self-cleavage stood at 1.25.

Take G34A U52C: the self-cleavage turned out to be 1.1.

With G34A U52A, the self-cleavage was 1.7.

Consider A31U A79G, for which the self-cleavage was determined as 0.55.

As to A31U A79U, the self-cleavage amounted to 2.19.

Consider A31U A65G, for which the self-cleavage was found to be 0.16.

In the case of A31U A65U, the self-cleavage is 0.21.

Regarding G34A U46C, the self-cleavage was found to be 1.27.

In the case of A31U U39A, the self-cleavage was 1.05.

For the variant A31U A42G, the self-cleavage came out at 1.46.

For the variant G34A U102C, the self-cleavage worked out at 1.43.

For G33C U96A, the self-cleavage stood at 0.05.

For G34U A64G, the self-cleavage was determined as 0.36.

Take G33A U91A: the self-cleavage was 0.59.

As to A31U C110A, the self-cleavage came out at 0.91.

In the case of G33U A57G, the self-cleavage came out at 0.64.

G34A A92G: the self-cleavage was found to be 0.08.

As for A31U A136G, the self-cleavage was determined as 0.79.

On to G34U U143G, for which the self-cleavage was found to be 1.01.

For the variant A31U U130A, the self-cleavage was determined as 1.53.

Turning to G33C U100C, the self-cleavage amounted to 1.63.

For A31U U134A, the self-cleavage worked out at 0.9.

On to A31U U134C, for which the self-cleavage came out at 1.2.

Consider G32A U87A, for which the self-cleavage stood at 0.03.

On to G33A U132C, for which the self-cleavage worked out at 1.47.

On to A31G G36A, for which the self-cleavage is 0.99.

A31G G36C: the self-cleavage came out at 1.67.

Regarding G33A U45A, the self-cleavage turned out to be 0.86.

As for G34C C56G, the self-cleavage amounted to 0.03.

For G32U U85C, the self-cleavage was found to be 0.17.

Take G32U U85A: the self-cleavage was 0.09.

As for G32A A78G, the self-cleavage turned out to be 0.47.

On to A31G U39C, for which the self-cleavage turned out to be 1.17.

G32U A42G: the self-cleavage was found to be 1.07.

Turning to A31U G32A, the self-cleavage came out at 1.56.

For G32A A92U, the self-cleavage is 0.75.

For the variant G34C A77G, the self-cleavage is 1.64.

G34C A77U: the self-cleavage came out at 1.18.

In the case of G32A G89U, the self-cleavage was found to be 0.04.

Consider A31G C90A, for which the self-cleavage was 0.12.

In the case of G32A U39A, the self-cleavage turned out to be 1.66.

As for G33C U46A, the self-cleavage came out at 1.45.

For G33A A136U, the self-cleavage worked out at 1.69.

As to G32A U119C, the self-cleavage was 1.29.

Turning to G33C A79G, the self-cleavage was 1.78.

For the variant G35A C76U, the self-cleavage turned out to be 2.14.

As for G32A U81A, the self-cleavage was determined as 1.46.

For the variant G32A U81G, the self-cleavage was determined as 1.36.

On to G33U A124U, for which the self-cleavage amounted to 1.84.

G34U U104A: the self-cleavage was 1.53.

Take G34U A79G: the self-cleavage stood at 0.55.

Consider G32A A94G, for which the self-cleavage stood at 0.36.

For G35A A67G, the self-cleavage turned out to be 0.22.

For the variant A31U G70A, the self-cleavage was found to be 0.26.

For A31U U108C, the self-cleavage came to 1.3.

In the case of G34U A141G, the self-cleavage came to 1.56.

For the variant G35A U45A, the self-cleavage was 1.28.

For the variant G34A A141G, the self-cleavage was determined as 1.41.

As for G33A A117G, the self-cleavage came out at 1.91.

Take G35A A92G: the self-cleavage stood at 0.02.

On to A31G C131U, for which the self-cleavage is 0.61.

For G33U G75A, the self-cleavage came to 0.78.

Take G33A A77U: the self-cleavage was 1.47.

Turning to G34U U73G, the self-cleavage turned out to be 0.99.

Take G34U U73A: the self-cleavage was 2.36.

Turning to G32C U108C, the self-cleavage came out at 1.55.

Take G34C U62A: the self-cleavage worked out at 0.04.

In the case of G32U A79G, the self-cleavage is 0.97.

Take G33A U109C: the self-cleavage came out at 1.05.

Take G32U U52A: the self-cleavage is 1.85.

For A31U A140G, the self-cleavage is 0.81.

As for A31U A140U, the self-cleavage is 0.94.

G35A U52A: the self-cleavage amounted to 0.86.

Take A31U U100G: the self-cleavage was found to be 1.23.

With A31U U100A, the self-cleavage came to 0.67.

In the case of A31U U100C, the self-cleavage stood at 1.41.

As for G32A A140G, the self-cleavage is 1.61.

G33U A136G: the self-cleavage turned out to be 1.7.

Take G33C C128U: the self-cleavage was found to be 0.92.

On to G32A U47A, for which the self-cleavage is 1.37.

As to G32A U47C, the self-cleavage was determined as 1.58.

With G34A A67G, the self-cleavage was found to be 0.35.

As to G35A A77G, the self-cleavage is 1.92.

Regarding G35A A77U, the self-cleavage is 0.8.

For the variant A31U A67U, the self-cleavage is 0.3.

For the variant G33U U143C, the self-cleavage was 0.61.

Take G34A G144A: the self-cleavage stood at 1.31.

Regarding G35A U62C, the self-cleavage came to 0.03.

As for G35A U62A, the self-cleavage worked out at 0.05.

For the variant G33A C56U, the self-cleavage was 0.35.

For the variant G32A U85C, the self-cleavage worked out at 0.16.

In the case of G32A U85A, the self-cleavage was determined as 0.14.

G35A A141G: the self-cleavage was found to be 1.39.

Take G33C A69G: the self-cleavage was 0.58.

As for A31G G32U, the self-cleavage amounted to 1.13.

As to A31G G32A, the self-cleavage turned out to be 1.25.

For G32A A136G, the self-cleavage worked out at 1.35.

Turning to G32A A136U, the self-cleavage was 0.45.

Consider G33A A121G, for which the self-cleavage worked out at 1.28.

As to G33U A142G, the self-cleavage turned out to be 0.88.

Consider G33U U47C, for which the self-cleavage turned out to be 1.73.

Consider G34A A64G, for which the self-cleavage was found to be 0.12.

Regarding G32U A77G, the self-cleavage came to 3.

For G32U A77C, the self-cleavage came out at 1.31.

On to G35A A136U, for which the self-cleavage came to 1.1.

Turning to A31U A78U, the self-cleavage came out at 1.57.

A31U A78G: the self-cleavage is 0.94.

With G34A C103U, the self-cleavage was determined as 1.7.

Take G34U A43U: the self-cleavage was found to be 0.97.

G34U A43G: the self-cleavage was found to be 1.06.

Consider A31U A142G, for which the self-cleavage turned out to be 0.78.

With A31U G82U, the self-cleavage came to 0.74.

In the case of A31G C128U, the self-cleavage amounted to 1.02.

Take G32A A67U: the self-cleavage was 0.09.

As for G34C U47C, the self-cleavage stood at 1.79.

Consider G34C U47A, for which the self-cleavage came out at 0.64.

Regarding G34C U39C, the self-cleavage worked out at 1.65.

As for G32U U102C, the self-cleavage came out at 1.13.

As for G34U U134C, the self-cleavage was 1.57.

In the case of G34U U134A, the self-cleavage amounted to 1.04.

As to A31U A141G, the self-cleavage turned out to be 1.01.

As for G33U A43U, the self-cleavage amounted to 0.54.

As to G32A A43G, the self-cleavage was 1.25.

Turning to G34U U81C, the self-cleavage is 2.12.

For A31G G127C, the self-cleavage amounted to 2.39.

With A31U U91C, the self-cleavage worked out at 0.38.

On to A31G G83A, for which the self-cleavage amounted to 0.69.

On to G33A U87C, for which the self-cleavage was determined as 0.2.

In the case of G33A A138G, the self-cleavage turned out to be 1.36.

In the case of G34U U47C, the self-cleavage was 2.18.

For G32U U130A, the self-cleavage was determined as 1.7.

Consider G34A A57G, for which the self-cleavage came to 1.21.

Take G33U U130A: the self-cleavage was 0.9.

For A31U A57U, the self-cleavage was determined as 0.24.

A31U C61A: the self-cleavage came to 0.13.

As for G34A, the self-cleavage turned out to be 1.16.

In the case of G34U, the self-cleavage is 1.43.

G34C: the self-cleavage was determined as 1.47.

In the case of G34C A50U, the self-cleavage came to 1.81.

Consider G32C A142G, for which the self-cleavage stood at 1.58.
